In the supplement of paper PMC12764529:
± gives the half width of the 95% confidence interval.

Experiment: folding stability dG unfold from chymotrypsin proteolysis; higher = more stable
Procedure: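 Folding stability of de novo designed mini-proteins (<80 aa, no Cys; designed by TrROS, TrMRF, ProteinMPNN and the joint model) was measured by cDNA display proteolysis with trypsin and chymotrypsin. Each protease was used at 11 concentrations in a threefold dilution series plus a no-protease condition. K50 was inferred by Bayesian fitting of sequencing counts, and dG unfold was derived against a sequence-predicted unfolded-state K50 (Tsuboyama et al. method). Sequences shown include variable-length N-terminal GS-type padding (SAGGSAGG...) inside a display construct carrying a PA tag. Rows were kept only if the AF2 dimer inter-PAE was >15, to exclude likely homo-oligomers.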

Sequence	folding stability dG unfold
SAGGSAGGSAGGMPVPRRLEIVVEPEYTEEEIEKIKKELIENGNPEIEEVVVVLPPNLESAGGSAGGSAGGS [r10_233_JUSTAS]	0.285 ± 0.04 kcal/mol
SAGGSAGGMFVPEGKTVTVKLPGNETVTVKVKAGNSRPFDSLEEIEAFAAQPGFDIEVSSSPAKSAGGSAGG [r6_433_JUSTAS]	0.0627 ± 0.077 kcal/mol
SAGGSAGGSAGGNKIHIMMPYDWAEEFANELQQQGIDPDNVKIEVHPMEMPPPPPPGDKSAGGSAGGSAGGS [r10_602_TrROS]	-0.0563 ± 0.11 kcal/mol
SAGGSAGGSAGGMTITVPVEGVEEAIEKAKKEHPNTEIKITLLKPGGEKATTRTVKILGSAGGSAGGSAGGS [r10_741_JUSTAS]	-0.403 ± 0.13 kcal/mol
SAGGISVEIYPPNGKKVELEGDTIPELMDKFPPGGNYVIKIEQPHVNPGNGKKQPMEMEFRVPPDDFSAGGS [r16_806_TrROS]	-0.202 ± 0.23 kcal/mol
SGMDVFVASDPGPSYLRAEARLPGGESRVLTSGPPEEARALVERLAAEEDPAMAVRRVEEVPPGELPPELSA [r9_137_JUSTAS]	-0.38 ± 0.18 kcal/mol
MTEKKEESLGEKKRITTTKPQEDGNPVVTERIIDPNGTIEKVIVKKSSPNKPTTEELPPFSTSNKEIVEKLS [r1_301_JUSTAS]	-0.691 ± 0.14 kcal/mol
SAGGSAGGSAGGMTLTITDDDPSVGPRTFTLTEPGSSKTTTLTSAEMEALKAAGPVTVAGSAGGSAGGSAGG [r7_452_JUSTAS]	0.122 ± 0.22 kcal/mol
SAGMKVTVSPASLVFDPATGRLLRPVLVTVEDTGGGGKTPAEEQAAAAEATRRALAAELAPRTGSALDLSAG [r5_333_JUSTAS]	0.912 ± 0.069 kcal/mol
SAGGSAGGSAGGGRVLRLADGKWRLVELPDGSVVLVPENVPVLDPEAKEPVLVAPVLPLDSAGGSAGGSAGG [r7_968_TrMRF]	0.938 ± 0.073 kcal/mol
SAMNVTLTKHPDGTYTVGATLPGYSPVSTQTIPSSVPSYTVTYRTPDEVLKVTYKDSGLTPERVPISRLSAG [r14_403_JUSTAS]	0.395 ± 0.053 kcal/mol
SAGGSASTTPIKFPNGFEVTKIEEGKGLVYIKYSPENPEILEKLGVEALETNENEVIVPREAIEKKSAGGSA [r15_984_JUSTAS]	-0.634 ± 0.28 kcal/mol
SAGGSAGGSAGMETRLIAVLEDGEAVFEDGGTLITVPADEDVADIPDGGGLGTIYIPKDGSAGGSAGGSAGG [r11_647_TrMRF]	0.53 ± 0.036 kcal/mol
SAGGSAGGSAGGMILTGDRAEILARLEAEGLGVAEEETVEEGDAPVTPVRVEVPPGAAGSAGGSAGGSAGGS [r10_885_JUSTAS]	0.972 ± 0.028 kcal/mol
SAGGSAGGSAGGKLTLKLGDYEVEVEWNPDEDVFIAEFPGDPRIARLRIPDDKIEIEPIESAGGSAGGSAGG [r7_156_TrMRF]	0.819 ± 0.12 kcal/mol
SAGGSATFEEALREVAEPTGAVPYVDPETGVAYVDFPDGKELEIEVPDGDRIEVRVLPDGRAVARGSAGGSA [r15_256_TrMRF]	-0.494 ± 0.19 kcal/mol
SAGGKKVIIPFKSPEQVKDWLENAPPGHDKVEIFSPETGYMAEFEVDPKENKIKEIKWERFDPDDGMFSAGG [r13_945_TrROS]	0.0373 ± 0.28 kcal/mol
SAGGSAGGSQWIEIELPLPNGRNIQIEMWPNNGMVDVEWPDGKEVEFPVETADDALDRVLDALSAGGSAGGS [r12_866_TrROS]	0.552 ± 0.12 kcal/mol
SAGGFKIERERDPDNGIRKIEFRFPDNGYRVKATINPDNDKIHIWGPNPAIREALPELGITNVEVEPWSAGG [r13_511_TrROS]	-0.811 ± 0.78 kcal/mol
SAGGSAGGSAGGSKTKTISFPMPWDDIPELAEELKDKGPVTIEHQDPDGNPREFTIPPDSAGGSAGGSAGGS [r4_341_TrROS]	0.484 ± 0.13 kcal/mol
SAGGSAGGSAVEFTDPNGAEVLEIKPLPDGTTRVLTKLPGGEIPIVTYDPNTGKITTTLLPASAGGSAGGSA [r18_483_JUSTAS]	0.135 ± 0.11 kcal/mol
SAGGSAGGSAGGSKVNDVTAEKNFLVFTEDGRVLGKGEVERAFAAGAGPIGAVPLPPGASAGGSAGGSAGGS [r4_47_TrMRF]	-0.54 ± 0.23 kcal/mol
SAGGMTVTLRLTDPAGEEYTVTVTKTEGKSTATVYGPGGELVETRDFSSAEEAIAYLRAQGYTVEVIESAGG [r13_315_JUSTAS]	5.323 ± 0.049 kcal/mol
SAGGSAGGSDIEIIINPNMSLEQAKKFANYLAQENNIPIEIEIIPPPKPEPEPERDPEDGKPKSAGGSAGGS [r12_159_TrROS]	-0.232 ± 0.36 kcal/mol

Sequence	folding stability dG unfold
SAGGSAGGSGHHHMTTRTSTSTDPATGSTTVTTTRTTTDGGTVTTTTTLPPPAATTTTSTTTSSAGGSAGGS [r12_1029_JUSTAS]	0.349 ± 0.044 kcal/mol
SAGGSAGGSASLVVVTTKPPNGPETVELTTDYPPDVRRVTTDPKTGATSEVVVLPADAVLPSAGGSAGGSAG [r3_356_JUSTAS]	0.873 ± 0.06 kcal/mol
SAGGSAGGSAGGMTVTVTVPPEKVEETIKKLGSKAKSVEREVLETPLGEKVAVVTVTLENSAGGSAGGSAGG [r7_904_JUSTAS]	0.647 ± 0.023 kcal/mol
SAGEYKVEEKDGKLYVTYPNGEKKEVEVKPAPPPVVTIKVKSVEELKALAEELNLEITEISEDTVVVKFSAG [r5_328_TrROS_Hall]	0.0799 ± 0.38 kcal/mol
SAGGSAGGSAGGSKKKKKKPKKVLLVRNKKTKKLYVFKTKEEAKKAGFEIVKDGKIKKKSAGGSAGGSAGGS [r4_306_TrROS_Hall]	0.258 ± 0.55 kcal/mol
SAGGSAGGSAGGRIRLRTELLVRREDGSLSRFRETAVFEVEARPRPVPAPRAYRDANGRLVSAGGSAGGSAG [r3_252_TrMRF]	0.264 ± 0.075 kcal/mol
SAGGSAGGSAGMVIPSTSPEEAVEKLRELVEKRGDFLVDVKPTEVHPDGTVVIETKKKPLSAGGSAGGSAGG [r17_430_JUSTAS]	0.21 ± 0.09 kcal/mol
SAGGSAGGKEVKVTLEYDEETGTLTLTVETPDGYVFKLEITFEKDEDGNLKVTIKLEVIPLEDLSAGGSAGG [r6_537_TrROS_Hall]	4.45 ± 0.21 kcal/mol
SAGGSAGGSAGGVTVSPEEYLATFPPGLTLRDSAGNLHELGDRAPVDPAAPVTLLSPEELSAGGSAGGSAGG [r7_507_JUSTAS]	0.464 ± 0.039 kcal/mol
SAGGSAGGNTIELPLPNGMELEIPVQKNPEGYYQVNIERYDPDDGKKKEIPFTMPAEDIKDFLKSAGGSAGG [r6_859_TrROS]	-0.205 ± 0.29 kcal/mol
SAGGMKIEKTPVKIEKEGEDTVIEYKETEYLPDGTVKEYEGILRIPKNTGKITTLEKKLLSTEPILGSAGGS [r16_729_JUSTAS]	-0.377 ± 0.3 kcal/mol
SAGGSAGGSAGKKTLYVIKIELSDEQLKEAKKEGKPLKLKAEIVEVKPVKVEVKKEYKKESAGGSAGGSAGG [r11_26_TrROS_Hall]	0.586 ± 0.31 kcal/mol
SAGGSAGGSAGKKKVLILGGDAVATAKELKKLGEDVEVEVLESGEDLEEHLKNYDLVLSGSAGGSAGGSAGG [r17_225_TrMRF]	0.344 ± 0.14 kcal/mol
SGMTTPVAEIDNTDGKPEKVKEWIKKTIPKTPPVTVTRTLASGAPSTWTIDPNTGKVTESVPGGHVTVAASA [r9_853_JUSTAS]	-1.07 ± 0.7 kcal/mol
SPAPPMRIDNIKPEKEDPNGDERKYRVYWQGPNGRPYHYEGPLEELEDMLDEDNIDPDNFWPGDEITIKVSA [r9_1078_TrROS]	0.869 ± 0.12 kcal/mol
SAGGSAGGDIKIEDIEYEQNPGGWQKVEVRLPGNGRPIEVPVPPGMPYEQAKDWAKDWAEELLKSAGGSAGG [r6_628_TrROS]	0.724 ± 0.13 kcal/mol
SAGRRSLVLLAPVDDPARAPTAEELARELLALGGTPATRPRAEPLEDDTLRVTFEAPGVDVTVLVDLRASAG [r5_144_TrMRF]	0.638 ± 0.12 kcal/mol
SAGGSAGGSEEFVILEIPFERKFVVKDPEGGEEREFEFRPVIPLVLPPELAEKLLKSPYLQKKSAGGSAGGS [r12_1015_TrMRF]	0.721 ± 0.26 kcal/mol
SAGGSAGGTIRIPPAARNMMKELQKQGFVIEEIKIDEIERTENGPPWIEIDFEIKKLPPEALKDSAGGSAGG [r6_771_TrROS]	-0.317 ± 0.33 kcal/mol
SAGGSAGGSASLIVISPPGAPRTIPLEGLVEKGIPEREAAELLEKELGIEINLSEPGVIRAKSAGGSAGGSA [r18_7_JUSTAS]	0.249 ± 0.044 kcal/mol
SAGGSAGGSIEINPNGNFKIRFRGGNRPQTHTIPIKPGETLDTIKDTIRKHMGPNFPEVEIERSAGGSAGGS [r12_300_TrROS]	0.0855 ± 0.11 kcal/mol
SAGMKIKVTIERGGDRAERILPPEEAKALLDKYPEDGEIPLDLEGEEVTVKIEKTPPALPTEEAIKELKSAG [r5_669_JUSTAS]	0.11 ± 0.4 kcal/mol
SKPITADEIAKHFPGIKDVEPTPNKKRLDFDNPNGHKPTIEVSPDGTIMIEHQNPDNGQKQEQEIPIDDLSA [r9_427_TrROS]	0.596 ± 0.056 kcal/mol
